Measured values: US20090117043A1 (Human Genome Sciences, published 2009)
Where no end group is shown, it is not given here.

T1: mature form of the neurokinin B polypeptide (amino acids 81 to 90 of SEQ ID NO:2) (human, ends and bridges not checked)
T1 construct: also called NKB; neurokinin 3 (NK3)
T1 peptide: DMHDFFVGLM

B1: N024C01 (scFv)
scFv: QVQLQQSGAEVKNPGSSVKVSCKPSRDTLSGDNFSSSVFSWVRQAPGQGLEWMGGIIPIFGVANYAQKFQPRVTISADMSTNTAYMELSSLRSEDTAVYYCASTWELRNAFDIWGKGTLVTVSSGGGGSGGGGSGGGGSQSVLTQPPSVSAAPGQKVTISCSGSTSNIGNNYVSWYQQHPGKAPKLMIYDVSKRPSGVPDRFSGSKSGNSASLDISGLQSEDEADYYCAAWDDSLSEFLFGTGTKLTVLG
B2: NO24D08 (scFv)
scFv: EVQLVQSGAEVKRPGASVKISCRTSGYTFTSYYIHWVRQAPGQGLEWLAIINPTAGNTYYTQDFQDRVTVTRDTSTSTVYMELRGLNSEDTAVYYCASPYGVRNAFDVWGQGTMVTVSSGGGGSGGGGSGGGGSQSVLTQPPSVSAAPGQKVTISCSGSTSNIGNNYVSWYQQHPGKAPKLMIYDVSKRPSGVPDRFSGSKSGNSASLDISGLQSEDEADYYCAAWDDSLSEFLFGTGTKLTVLG
B3: NO23E01 (scFv)
scFv: QVQLVQSGGGLVQPGRSLRLSCAASGFTFDDYAMHWVRQAPGKGLEWVSGISWNSASIGYADSVKGRFTISRDNAKNSLYLQMNSLRGEDTALYYCAKGARDALDIWGKGTLLTVSSGGGGSGGGGSGGGGSQSVLTQPPSVSAAPGQKVTISCSGSTSNIGNNYVSWYQQHPGKAPKLMIYDVSKRPSGVPDRFSGSKSGNSASLDISGLQSEDEADYYCAAWDDSLSEFLFGTGTKLTVLG
B4: NO24C05 (scFv)
scFv: QVQLQQSGPGLVKPSQTLSLTCAISGDSVSSNTAAWSWIRQSPSRGLEWLGRTYYSRSKWYKDYAVSVKSRITINPDTSKNQFSLQLDSVTPEDTAVYYCTREGYYDYSGVVDYWGQGTTVIVSSGGGGSGGGGSGGGGSQSVLTQPPSASGSPGQSVTISCTGTSSDVGGYNYVSWYQQHPGKAPKFMIYDVSKRPSGVSNRFSGSKSGNTASLTISGVQAEDEADYYCSSYTSASTVIFGGGTKLTVLG
B5: NO25E05 (scFv)
scFv: QVQLQQSGAEVKKPGSSVKVSCKASGDTFSSNTISWVRQAPGQGLEWMGGIIPIIGTPHYAQKFQGRVTITADRSTSTAYMELTNLRSEDTAVYFCARNRVGTSSFDFWGQGTMVTVSSGGGGSGGGGSGGGGSALPVLTQPPSASGTPGQRVTISCSGSSSNIGSNTVNWYQQLPGTAPKLFIYSNNQRPSGVPDRFSGSKSGTSASLAISGLQSEDEADYYCSSWDDSLNLIFGGGTKVTVLG
B6: NO25C01 (scFv)
scFv: QVQLVQSGAEVKKPGTSVKVSCKAAGDTFRSYIISWVRQAPGQGLEWVGGIIPMFGTSNYAQKFQGRVTITADDSTSTAYMELSSLRSEDTAVYYCARTAQGGSYYNYWGQGTPVTVSSGGGGSGGGGSGGGGSQSVLTQPPSVSAAPGQKVTISCSGSTSNIGNNYVSWYQQHPGKAPKLMIYDVSKRPSGVPDRFSGSKSGNSASLDISGLQSEDEADYYCAAWDDGLSEFLFGTGTKLTVLG
B7: NO24F09 (scFv)
scFv: QVQLQQSGAEVKKPGASVKVSCKASGYTFTGYYMHWVRQAPGQRLEWMGGILPFFGTTSYAQNFHGRLTITADESTRTAYMELSSLKSEDTAVYYCARDESADPKNAFDIWGRGTMVTVSSGGGGSGGGGSGGGGSQSVLTQPPPVSAAPGQKVTISCSGSTSNIGNNYVSWYQQRPGKAPKLMIYDVSKRPSGVPDRFSGSKSGNSASLDISGLQSEDEADYYCAAWDDSLSEFLFGTGTKLTVLG
B8: NO24B01 (scFv)
scFv: QVQLQQSGNEVKKPGSSVKISCKASGAPFNSYVISWVRQAPGQGLEWVGGVVPIFGTAHYAHQFQGRVTIIADKSTSTVYMELRGLTSDDTAEYFCARQGPYGKLDDWGQGTMVTVSSGGGGSGGGGSGGGGSALSYELTQPPSASGTPGQRVTISCSGSSSNIGSNYVYWYQQFPGTAPKLLMYRNNQRPSGVPDRFSGSKFGTSASLAISGLRSEDEADYYCAAWDDSLTGRVFGGGTKVTVLG
B9: NO24F07 (scFv)
scFv: QVQLQQSGAEVKKPGSSVNVSCKASGGTFDTFGISWVRQAPGKGLEWMGVIAHDGSISYYADSVKGRFTFSRDNSKNTVSLQMNSPRPEDTAVYYCAKGEYDSSGYNAFDIWGKGTLVTVSSGGGGSGGGGSGGGGSQSVLTQPPSVSAAPGQKVTVSCSGSTSNIGNNYVSWYQQHPGKAPKLMIYDVSKRPSGVPDRFSGSKSGNSASLDISGLQSEDEADYYCAAWDDSLSEFLFGTGTKLTVLG
B10: NO15D10 (scFv)
scFv: QVQLVQSGAEVKKPGSSVRISCKASGGSFRTYVVSWVRQAPGQGLEWMGGIIPVYGTPNYAQKFQGRVTITADEPTRTTYMELSSLRSEDTGVYYCARNGGGLDYWGQGTMVTVSSGGGGSGGGGSGGGGSQSVLTQPPSVSAAPGQKVTISCSGSTSNIGNNYVSWYQQHPGKAPKLMIYDVSKRPSGVPDRFSGSKSGNSASLDISGLQSEDEADYYCAAWDDSLSEFLFGTGTKLTVLG
B11: N015E08 (scFv)
scFv: QMQLQESGAEVKKPGSSVKVSCKASGDTFRSYIISWVRQAPGQGLEWMGGIIPMFGTTNYAQQFQGKVTITADDSTSTSYMELRSLRSDDTAVYYCARGTNYMDVWGQGTTVTVSSGGGGSGGGGSGGGGSQSVLTQPPSVSAAPGQKVTISCSGSTSNIGNNYVSWYQQHPGKAPKLMIYDVSKRPSGVPDRFSGSKSGNSASLDISGLQSEDEADYYCAAWDDSLSEFLFGTGTKLTVLG
B12: NO15F10 (scFv)
scFv: QVQLQQSGAEVKKPGSSVKVSCKASGGTFSSYAISWVRQAPGQGLEWMGGSIPKFRTANYAKKFQGRVTITADESTSTAYMELSSLRSDDTAVYYCARGSAYNLRNAFDIWGQGTTVTVSSGGGGSGGGGSGGGGSAQSVVTQPPSVSAAPGQRVTISCSGSSSNIANNYVSWYQQLPGTAPKLLIYDNNKRPSGIPDRFSGSKSGTSATLGITGLQTGDEADYYCGTWDSSLSAYVFGTGTKVTVLG
B13: NO24D01 (scFv)
scFv: QVQLQQSGGGVVQPGRSLRLSCAASGFTFDDYAMHWVRQAPGKGLEWVSGISWNSGSIGYADSVKGRFTISRDNAKNSLYLQMNSLRAEDTALYYCAKTGGGNSLDYWGRGTLVTVSSGGGGSGGGGSGGGGSQSVLTQPPSVSAAPGQKVTISCSGSTSNIGNNYVSWYQQHPGKAPKLMIYDVSKRPSGVPDRFSGSKSGNSASLDISGLQSEDEADYYCAAWDDSLSEFLFGTGTKLTVLG
B14: NO15D08 (scFv)
scFv: QVQLLQSAPEVKKPGSSVRVSCKTSGGTFSSQLINWVRQPPGQGPEWMGGIIPIFGTANYAQKFQGRVTITADESTSTAYMELSSLRSEDTAVYYCARDLTAGRFDAFHIWGRGTLVTVSSGGGGSGGGGSGGGGSQSVLTQPPSVSAAPGQKVTISCSGSTSNIGNNYVSWYQQHPGKAPKLMIYDVSKRPSGVPDRFSGSKSGNSASLDISGLQSEDEADYYCAAWDDSLSEFLFGTGTKLTVLG
B15: NO24B07 (scFv)
scFv: QVQLQQSGAEVKKPGSSVKVSCKASGGTFSSYAISWVRQAPGQGLEWMGGSIPKFRTANYAKKFQGRVTITADESTSTAYMELSSLRSDDTAVYYCARGSTYNLRNAFDIWGKGTLVTVSSGGGGSGGGGSGGGGSAQSVVTQPPSASGTPGQRVTISCSGGSSNIGRNTVNWYQQVPGTAPKLLIYTNNQRPSGVPDRFSGSKSGTSASLAISGLQSEDEADYYCAAWDDSLNDVEFGGGTKLTVLG
B16: NO24E07 (scFv)
scFv: QVQLQESGGGLEQPGRSLRLSCTASGFTFDDYPMHWVRQAPGKGLEWVSGISGNSDRIAYADSVKGRFTISRDNSKNTLWLQMNSLRAEDTAIYYCARAARNWFDPWGQGTLVTVSSGGGGSGGGGSGGGGSQSVLTQPPSVSAAPGQKVTISCSGSTSNIGNNYVSWYQQHPGKAPKLMIYDVSKRPSGVPDRFSGSKSGNSASLDISGLQSEDEADYYCAAWDDSLSEFLFGTGTKLTVLG
B17: NO23F05 (scFv)
scFv: QVQLVQSGAEVKKPGFSVKVSCKASGGSFSNYVISWLRQAPGQGLEWMGGIMPIFGNANYAQKFQDRVTITADKSTSTAYMELSSLRSDDTAVYYCARDQIVVDPVTKGAYYSGLDVWGRGTMVTVSSGGGGSGGGGSGGGGSAQSVLTQPPSASGTPGQRVTISCSGGSSNIGANAITWFQQLPGTAPKLLIYHNNQRPSGVPDRFSGSKSGTSGSLAISGLQSEDEADYYCAVWDNSLNAMLFGGGTKLTVLG

Biological target: T1, mature form of the neurokinin B …
Assay: phage display selection of scFvs; conditions not given

Row | Binder | binding result
1 | B1 | binds
2 | B2 | binds
3 | B3 | binds
4 | B4 | binds
5 | B5 | binds
6 | B6 | binds
7 | B7 | binds
8 | B8 | binds
9 | B9 | binds
10 | B10 | binds
11 | B11 | binds
12 | B12 | binds
13 | B13 | binds
14 | B14 | binds
15 | B15 | binds
16 | B16 | binds
17 | B17 | binds
